What was measured:
[1] = molecular target: Hsp27-3D, triple phospho-mimetic mutant of Hsp27 (human) (UniProt P04792); assay: flow cytometry protein interaction assay
[2] = molecular target: Hsp27c, truncated Hsp27 with only the core α-crystallin domain (human); assay: flow cytometry protein interaction assay
Hsp70 NBD (Homo sapiens) = Hsp70 NBD (Homo sapiens) (UniProt P0DMV8); conditions: cited from earlier work
[3] = molecular target: BAG3 with the first IPV motif mutated to GPG (IPV1) (UniProt O95817); assay: ITC
BAG3 Δ200–213 = BAG3 Δ200–213 (UniProt O95817); assay: ITC
BAG3 Δ87–101 = BAG3 Δ87–101 (UniProt O95817); assay: ITC
BAG3 Δ87–101 & Δ200–213 = BAG3 Δ87–101 & Δ200–213 (UniProt O95817 1-575, Δ87–101 | Δ200–213, Alexa Fluor label in the FCPIA experiments); assay: flow cytometry protein interaction assay

Sequence of Hsp70 NBD (Homo sapiens) (P0DMV8 2-386): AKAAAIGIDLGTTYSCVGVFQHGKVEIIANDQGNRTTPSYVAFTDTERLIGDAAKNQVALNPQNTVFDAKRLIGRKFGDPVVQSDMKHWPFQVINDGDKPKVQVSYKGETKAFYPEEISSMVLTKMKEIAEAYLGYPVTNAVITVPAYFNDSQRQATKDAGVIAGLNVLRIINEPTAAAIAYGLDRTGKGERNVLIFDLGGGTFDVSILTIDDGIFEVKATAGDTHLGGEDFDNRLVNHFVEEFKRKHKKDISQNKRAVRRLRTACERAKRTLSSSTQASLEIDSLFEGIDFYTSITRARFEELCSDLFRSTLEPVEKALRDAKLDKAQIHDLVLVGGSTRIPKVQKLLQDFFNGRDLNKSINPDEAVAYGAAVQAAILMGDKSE

Molecule: BAG3 Δ87–101 & Δ200–213 (from UniProt O95817 1-575) (natural protein)
- Kd [1]: > 50 µM
- fold weakening of the affinity against BAG3 with both IPV motifs [2]: > 25 fold

Molecule: BAG3 (from UniProt O95817)
- Kd (Hsp70 NBD (Homo sapiens)): 0.01 µM

Molecule: Hsp27c, truncated Hsp27 with only the core α-crystallin domain (domain or fragment)
- stoichiometry N [3]: 1 Hsp27c:BAG3
- stoichiometry N (BAG3 Δ200–213): 1 Hsp27c:BAG3
- stoichiometry N (BAG3 Δ87–101): 1 Hsp27c:BAG3

B1: Hsp20 (HSPB6) (natural protein, human, UniProt O14558 1-160, looked up)
chain: MEIPVPVQPSWLRRASAPLPGLSAPGRLFDQRFGEGLLEAELAALCPTTLAPYYLRAPSVALPVAQVPTDPGHFSVLLDVKHFSPEEIAVKVVGEHVEVHARHEERPDEHGFVAREFHRRYRLPPGVDPAAVTSALSPEGVLSIQAAPASAQAPPPAAAK
modifications: biotin (EZ-link NHS-Biotin) in the FCPIA experiments
- Kd (BAG3 Δ87–101 & Δ200–213): > 50 µM

— article PMC5186407 (Journal of molecular biology, 2016)
